For orientation: Kd means the constant that tells how readily two partners part at equilibrium. A low value points to higher affinity.

5 molecules from patent publication US20140322210A1 can be followed below.

Like-named read-outs stand apart in the source and are kept apart here.

Experiment [1] deals with Hemagglutinin of H7N7 A/Netherlands/219/03 (influenza A virus). Briefly: cell-based or functional assay.
Experiment [2] addresses Hemagglutinin of H3N2 A/Perth/16/2009 (influenza A virus). Briefly: cell-based or functional assay.
In experiment [3] the target is Hemagglutinin of H3N2 A/Wisconsin/67/2005 (influenza A virus). Briefly: cell-based or functional assay.
The target of experiment [4] is Hemagglutinin of H3N2 A/Hong Kong/8/68 (influenza A virus). Briefly: cell-based or functional assay.
In experiment [5] the target is Hemagglutinin of H3N2 A/New York/55/2004 (influenza A virus). Briefly: cell-based or functional assay.
The target in experiment [6] is Hemagglutinin of H4N4 A/Bufflehead (influenza A virus). As to the kind of experiment: cell-based or functional assay.
The target in experiment [7] is Hemagglutinin of H5N1 A/VN/1204 (influenza A virus). Briefly: cell-based or functional assay.
In experiment [8] the target is Hemagglutinin of H1N1 A/CA/07/09 (influenza A virus). As to the kind of experiment: cell-based or functional assay.
In experiment [9] the target is Influenza A hemagglutinin of clade H5 (strain not stated) (influenza A virus). As to the kind of experiment: FortéBio biolayer interferometry. A general note: BLI is a label-free optical method that tracks binding on a fibre tip over time.
Experiment [10] deals with Influenza A hemagglutinin of clade H3 (strain not stated) (influenza A virus). Briefly: FortéBio biolayer interferometry.
Experiment [11] concerns the target Influenza A hemagglutinin of clade H1 (strain not stated) (influenza A virus). As to the kind of experiment: FortéBio biolayer interferometry.
For experiment [12], the target named is Hemagglutinin of H7N7 A/Netherlands/219/03 (influenza A virus). Briefly: affinity, method not named in Table 3.
The target in experiment [13] is Hemagglutinin of H3N2 A/Perth/16/2009 (influenza A virus). As to the kind of experiment: affinity, method not named in Table 3.
Experiment [14] concerns the target Hemagglutinin of H7N3 A/Canada/rv444/04 (influenza A virus). As to the kind of experiment: affinity, method not named in Table 3.
For experiment [15], the target named is Hemagglutinin of H3N2 A/Hong Kong/8/68 (influenza A virus). Briefly: affinity, method not named in Table 3.
In experiment [16] the target is Hemagglutinin of H3N2 A/New York/55/2004 (influenza A virus). As to the kind of experiment: affinity, method not named in Table 3.
Experiment [17] addresses Hemagglutinin of H7 A/Sanderling/A106-125 (influenza A virus). Briefly: cell-based or functional assay.
Experiment [18] concerns the target Hemagglutinin of H7N7 A/Netherlands/219/03 (influenza A virus). As to the kind of experiment: cell-based or functional assay. The source holds these as a separate data set.
For experiment [19], the target named is Hemagglutinin of H3N2 A/Perth/16/2009 (influenza A virus). As to the kind of experiment: cell-based or functional assay. This is another data set of the same source.
Experiment [20] deals with Hemagglutinin of H3 A/Phillipines/2/82 x-79 (influenza A virus). As to the kind of experiment: cell-based or functional assay.
Experiment [21] has as its target Hemagglutinin of H7N3 A/Canada/rv444/04 (influenza A virus). Briefly: cell-based or functional assay.
Experiment [22] has as its target Hemagglutinin of H3 A/SW/MN/02719 (influenza A virus). Briefly: cell-based or functional assay.
Experiment [23] deals with Hemagglutinin of H7 A/Redknot/NJ/1523470/06 (influenza A virus). As to the kind of experiment: cell-based or functional assay.
The target of experiment [24] is Hemagglutinin of H10N7 A/Northern Shoveler (influenza A virus). Briefly: cell-based or functional assay.
Experiment [25] addresses Hemagglutinin of H3N2 A/Wisconsin/67/2005 (influenza A virus). Briefly: cell-based or functional assay. The source holds these as a separate data set.
The target in experiment [26] is Hemagglutinin of H3N2 A/Hong Kong/8/68 (influenza A virus). As to the kind of experiment: cell-based or functional assay. The source holds these as a separate data set.
The target in experiment [27] is Hemagglutinin of H3N2 A/New York/55/2004 (influenza A virus). Briefly: cell-based or functional assay. The source holds these as a separate data set.
Experiment [28] has as its target Hemagglutinin of H4N4 A/Bufflehead (influenza A virus). As to the kind of experiment: cell-based or functional assay. The source holds these as a separate data set.
Experiment [29] concerns the target Hemagglutinin of H3 A/Udorn/307/1976 (influenza A virus). As to the kind of experiment: cell-based or functional assay.
Experiment [30] has as its target Hemagglutinin of H7 A/Ruddy Turnstone/A106-892 (influenza A virus). Briefly: cell-based or functional assay.
In experiment [31] the target is Hemagglutinin of H7N7 A/Netherlands/219/03 (influenza A virus). As to the kind of experiment: FortéBio.
In experiment [32] the target is Hemagglutinin of H3N2 A/Perth/16/2009 (influenza A virus). As to the kind of experiment: FortéBio.
Experiment [33] concerns the target Hemagglutinin of H3N2 A/Hong Kong/8/68 (influenza A virus). Briefly: FortéBio.
Experiment [34] addresses Hemagglutinin of H5N1 A/VN/1204 (influenza A virus). Briefly: affinity, method not named in Table 3.
Experiment [35] has as its target Hemagglutinin of H1N1 A/CA/07/09 (influenza A virus). As to the kind of experiment: affinity, method not named in Table 3.
In experiment [36] the target is Influenza A hemagglutinin of clade H9 (strain not stated) (influenza A virus). As to the kind of experiment: FortéBio biolayer interferometry.
For experiment [37], the target named is Influenza A hemagglutinin of clade H7 (strain not stated) (influenza A virus). As to the kind of experiment: FortéBio biolayer interferometry.
Experiment [38] concerns the target Hemagglutinin of H9N2 Mallard/MN/98 (influenza A virus). Briefly: cell-based or functional assay.
Experiment [39] concerns the target Hemagglutinin of H2N2 A/Mallard/MN/2008 (influenza A virus). As to the kind of experiment: cell-based or functional assay.
For experiment [40], the target named is Hemagglutinin of H5N1 A/VN/1204 (influenza A virus). Briefly: cell-based or functional assay. The source holds these as a separate data set.
For experiment [41], the target named is Hemagglutinin of H1N1 A/CA/07/09 (influenza A virus). Briefly: cell-based or functional assay. The source holds these as a separate data set.
For experiment [42] the target is unchanged. As to the kind of experiment: FortéBio.
For experiment [43], the target named is Hemagglutinin of H5 Vietnam/1203/2004 (influenza A virus). As to the kind of experiment: FortéBio.

Consider “CR8020 (mAb cloned from Crucell patents) (antibody)”, for which the EC50 for in vitro neutralization in experiment [1] was 13.1 µg/mL; in experiment [2] it was 2 µg/mL; in experiment [3], 3.5 µg/mL; in experiment [4], 7.6 µg/mL; in experiment [5] it was 10 µg/mL; in experiment [6], over 40 µg/mL.
“CR6261 (mAb cloned from Crucell patents) (antibody)”: the EC50 for in vitro neutralization was 3.7 µg/mL in experiment [7] and 4 µg/mL in [8].

B1: MAB8 (antibody, V domains shown)
VH: EVQLVESGGGLVKPGGSLRLSCAASGFTFSTYTMSWVRQAPGQGLEWVSSITRTSSNIYYADSVEGRFTISRDNAKNSLYLQMHSLRVEDTAVYYCARISGVVGPVPFDYWGQGTLITVSS
VL: DIQMTQSPSSLSASVGDRVTITCRASQTISKYLNWYQQKPGRAPKLLIYSASSLQSGVPSRFTGSGSGTDFTLTITSLQPEDFATYYCQQSYRPSQITFGPGTKVDIK
Turning to B1, the dissociation constant Kd in experiment [9] came out at 0.2 nM; in experiment [10], 16 nM; in experiment [11], 9 nM.

B2: MAB579 (antibody, V domains shown)
VH: QVQLVQSGAEVKKPGASVKVSCKTSGYTFTAYTIHWVRQAPGQRLEWMGWINAGNGHTKYSQRFKGRVTITRDTSARTTYMELRSLTSEDTALYFCARGPETYYYDKTNWLNSHPDEYFQHWGHGTQVTVSS
VL: DIQMTQSPSTLSASVGDRVTITCRASQTINNYLAWYQQKPGKAPKLLIYKASSLESGVPSRFSGSGSGTEFTLTISSLQPDDFATYYCQEYNNDSPLTFGGGTKVEIK
As for B2, the Kd in experiment [12] turned out to be 0.4 nM; in [13] it was 0.8 nM; in experiment [14] it was 0.6 nM; in [15], 0.2 nM; in experiment [16], 0.2 nM; in experiment [31], 0.4 nM. For the same molecule, the Kd came out at 0.7 nM in experiment [32] and 0.2 nM in experiment [33]. For the same molecule, the IC50, MDCK monolayer microneutralization assay is over 20 µg/mL in [17]; 0.6 µg/mL in experiment [18]; 0.2 µg/mL in experiment [19]; 0.9 µg/mL in [20]; 1.6 µg/mL in experiment [21]; 3.9 µg/mL in [22]. Besides, the IC50, MDCK monolayer microneutralization assay in [23] is over 20 µg/mL; in [24], 0.8 µg/mL; in experiment [25], 1 µg/mL; in experiment [26] it was 2.8 µg/mL; in experiment [27], 1.1 µg/mL; in experiment [28], 15.5 µg/mL. Moreover, the IC50, MDCK monolayer microneutralization assay in [29] is 1.9 µg/mL; in experiment [30] it was over 20 µg/mL. In addition, the EC50 for in vitro neutralization was 0.7 µg/mL in experiment [18]; 0.05 µg/mL in experiment [19]; 0.5 µg/mL in experiment [21]; 0.8 µg/mL in [24]; 1 µg/mL in experiment [25]; 2 µg/mL in experiment [26]. For the same molecule, the EC50 for in vitro neutralization in experiment [27] was determined as 2 µg/mL; in [28], 15 µg/mL. Besides, the Potency Difference (MAB579 against CR8020) stood at 20 x in experiment [18]; 40 x in experiment [19]; 3 x in experiment [25]; 3 x in experiment [26]; 5 x in experiment [27]; 3 x in [28].

B3: MAB53 (antibody, V domains shown)
VH: QVQLVQSGAEVRKPGSSVKVSCKVSGGIIRKYAINWVRQAPGQGLEWMGGIIAIFNTANYAQKFQGRVTITADESTSTVYMELSSLRSEDTALYYCARGMNYYSDYFDYWGQGSLVTVSP
VL: EIVLTQSPGTLSLSPGERATLSCRASQSVRSNNLAWYQHKPGQAPRLLIFGASSRATGIPDRFSGSGSGTDFTLTISRLEPEDFAVYYCQQYGSSPALTFGGGTKVEIK
For the molecule B3, the equilibrium dissociation constant (Kd) was determined as 0.5 nM in [34]; 0.1 nM in [35]; 0.03 nM in [36]; 0.07 nM in experiment [37]; 6 nM in [9]; 0.06 nM in [11]. In addition, the Kd in experiment [42] came out at 0.2 nM; in experiment [43], 0.5 nM. For the same molecule, the EC50 for in vitro neutralization is 0.1 µg/mL in [38], 1.2 µg/mL in [39], 0.1 µg/mL in [40] and 0.14 µg/mL in experiment [41]. In addition, the Potency Difference (MAB53 against CR6261) in experiment [40] is 40 x; in [41], 30 x.
